Data taken from the DeepSol protein solubility set.

Test: soluble on expression in E. coli; label from the status in PepcDB or PDB records

Sequence: MSLRAVVTMGHGDLDQLVLHPDWPRPDPEPGEVLIRVGACGLNNTDVNTRSGWYSKTVTDATTGGAFDEVGEDDPTWGGAPITFPRIQGADVCGTIVAVGAGVDAARIGERVITDGWLRDADAPEDMNKTGYFGSERNGGFAEYTTIPSSNALDVNSTLSDAELATFSCSYSTAEGMLTRARVTADDTVLIPGASGGVGGALVQLAKRRGARVIAIASEGKHSDVAALGPDMILPRAPAHLRSALGDERITVVADVVGGPYWPSLIDILERGGRYTCSGAIAGPMVSLDLRTFYLRDLTFTGSTVIDLEVMPNIVRYIEEGAIKPSLAATYPLEDLRAAQSAFIAKEHTGNIVVTEGHHHHHH
- soluble on expression in E. coli: not soluble

Sequence: MAALFQEASSCPVCSDYLEKPMSLECGCTVCLKCINSLQKEPHGEDLLCCCCSMVSQRNKIRPNRQLERLVSHIKELEPKMKKILQMNPRMRKFQVDMTLDADTANNFLLISDDLRSVRSGLITQNRQDLAERFDVSVCILGSPRFTCGRHYWEVDVGTSTEWDLGVCRESVHCKGKIQLTTELGFWTVSLRDGSRLSASTVPLTFLLVDRKLQRVGIFLDMGMQNVSFFDAESGSHVYTFRSVSAEEPLRPFLAPSIPPNGDQGVLSICPLMNSGTTDAPVRPGEAK
- soluble on expression in E. coli: soluble

Sequence: MIAKIIKGTSFSGVLAYILGKQEGKARILYADGVRANAQASDIANDFALQASMRPNVKKPVCHTILSFSAEDTERLSDKVMTDLAKEYLQRMGYADTQYLIVRHLDREHPHLHICINRVNNEGKTISDSNEKYCSTKVCKELTEANLLKWGEGKEAVKRHRLRGNDQLRYAIFDAIKAALPKCTNWQELTSELQKRGIEVQFKTKGQTEKVEGVIFSMDGVSFSGSHIDRSCSYSKLSFALEQNAKHALSLPALPKEDGFIEELSEAIEKLGENLFDSNAPAVDVAELIFQRKLRNQANKKLKRRRL
- soluble on expression in E. coli: not soluble

Sequence: AIAVIVSRCGTGGSVTEHANEVVMKLEALQRPGGLPLSILLVLAGLTKRGASDLRHPIAEDRQSLSCATVQPSLQDV
- soluble on expression in E. coli: soluble

Sequence: MGSDKIHHHHHHMKKMLKPFYNWLRLKLQFLEEAYYFWLLLCRHNASVNTEASMKKMQYILLREAHVIEKGMSMRNPRKGFGQAKILIMLQNLNRYYDLYSTEDLDFLKFPISTVGSYIQYTNEMGIDITKIEQQYLNLVSRTGFQNLNRHSGIESIAKSDILKECNKTFESLLYSRHSIRYFDNKIPSKEMLEKALKLASRTPSACNRQGWLTHIFIGEKSYSLLQWQGGSNGFEKEIHCSILVTANLNAFLSYEVHQAYVDGGLYAMNLLNALHSLGLGTIPLSCGFGYSKLRMLKKQFYIPENEVPIMIIGVGELLDHFNVAISMRRDVSTTNTYHY
- soluble on expression in E. coli: not soluble

Sequence: MGSDKIHHHHHHVVAVNRAVFLDRDGVINKDHGYVHQVDDFEYIEGVFEACLALKKMGYKLVVVTNQSGIARGMYSEDQFHSLTEWMDWNFADKGVDLDGIYYCPHHAEKGMGEYKVDCDCRKPKPGMLNDAAKFLKVDLSQSVMVGDKADDMQAAKAAGVPTRILVRSGKVIADSSDATIVLDSIADVPDYLKA
- soluble on expression in E. coli: not soluble

Sequence: EVKQFNTYANNLAKIKQKVILMGLLTEAKLEQYKGLSVDEVEAQTEFSFQDAIYSLSPYEKLNYVEAVARKSLHQAEAYLSNAFNRQNAIMYFRSYTGSKLILERPIKALEGVKATFDVDWCKSNYSCVLAAWKEQLTDRVLFSLPFKTTYSDDMAISIMSPVYFQGELVGEFSEQLYLSSLYNEGKAVDVQISNGNKQMVIYFSGYPWPSFAYTQSFVADNNNLIVYMYPFSKV
- soluble on expression in E. coli: not soluble

Sequence: MGSDKIHHHHHHCGGSGSSEPVAPTTTPDTGFSFAATAMITNLTQEVIVTGYADLAAKGSELVLATQKLINSTSQADLVAAQDAWKAARQPWEQGESHIFGPVDSLSIDPHLDSWPLNTTDLSTQLTTAAGFDAETIKSWNDDVQGFHTMEYLLFGDGVADNTKDISELTVKEREYLIALAQVFRDHAKTLDDAWQINHKPDDANAKPYAELLSQPGVDGNTVYSSELAVIEELINGMIGIVDEVGNGKISDPFGDSITSADTSKVESQYSWNSLTDFANNIQGVRNVYQGEFTGNTDKQGVKDFVSAADANLAVRVASEIDDAIIKIQAISGSNSMPFRQAIKDANGRVRIQTAIDALTKLKTSLESDVIPLLSKWKPA
- soluble on expression in E. coli: not soluble

Sequence: GMTSREDEIRDFLATHGYADWNRTPLAGDASSRRYQRLRSPTGAKAVLMDWSPEEGGDTQPFVDLAQYLRNLDISAPEIYAEEHARGLLLIEDLGDALFTEVINNDPAQEMPLYRAAVDLLIHLHDAQTPELARLDPETLSEMTRLAFSEYRYAILGDAAEDNRKRFEHRFAQILSAQLEGDMVFVHRDFHAQNLLWLPEREGLARVGVIDFQDAKLGHRAYDLVSLLQDARRDVPAQVEAQMIDHYIQATGVDESHFRSAYAVIAVQRNMRILGIFARLSQRFGKRHYIEFVPRVWAHFERGLAHPALASAAEEILNALPAPAPEVLERLRA
- soluble on expression in E. coli: soluble

Sequence: MIEIKVPELAESITEGTISQWLLNVGDKVEKGGSVVELETDKVNVEIIAEDSGIVSKLLGEPGDTVEVGATIAILDANGAPVAVSTPAPAEQSKQETAEAPKAAAPSAEQTATLQGLPNTNRPIASPAARKMARELGIDLNDVRSTDPLGRVRPHDVQAHAAAPKEAPAAPKSPAPAPVAKTEFEKPVERVKMSRRRQTIAKRLVEVQQTSAMLTTFNEVDMTAIMELRKERKDAFEKKHDVRLGFMSFFTKAVVAALKQFPLLNAEIQGDELIIKKFYDIGIAVAAPDGLVVPVVRDANQLNFAEIESEIRELGKKARDNKLSLKELQGGTFTITNGGVFGSLMSTPILNSPQVGILGMHKIQVRPVAIDNERMENRPMMYIALSYDHRIVDGKEAVSFLVAVKDMLEDPKSLLLEG
- soluble on expression in E. coli: not soluble

Sequence: MTSMDNSARGQRHNEFADSAARIEAANDMSISAGRDVINKGSVLESGRDMSIQAGRDVTIAPTEVTNSLFSDSKHNSSDITQLGSTASAGRDLTVQAGRDISVIASQIDAKRDIAMAATENLTISSAADEEHSLSKSKKLTRQEDHVSQIAADLDAGGSVALQAGQNLAVISSRITAGKEAYLVAGDQLDILAAQDSDYSLYDKKKKGSFGAKKTKRDEITDVKNIGSEITTGGDLLLASGGDQKYQVAKLESGKDLTIDSGGAVTFEGVKDLHQESHEKSKSDLAWNSSKGKGNTDETLRQSELVAKGELAIRAVEGLKIDIKQVDQQSVSQTIDAMVKADPQLAWLKEAELRGDVDWRQVKEVHDSLIGTAVNAAVVAGLTSATSQAVISTVNNKGNLGAALKDVTSAESMKGYLVSGLAAGFAAGILDPAYGVSPENTAKATHGFDLGSVDGFTNYAGYTLAQGGFSAAANTAINGGSLTDNLAQAAISSAADAMSAGIYNKLGTKLEFSGLPSKLAAHALVGGLIAELAGGDFRSGALAAGANEAFVNLVGDKIFVGESHDKLLAMTSQLVGLTVAAAAGGTDKDQAVAGWVAQQATTFNYLEHSEKEAFIKEMLGCDTDKCAREKWEQGKFDEDSQANVQYANDIAGSQRARETRDRVLDSLGSILDMNCPTSACEGYKQLLMERSLGTLKNLNQVIKDWASVDQRLGLMAGAAVGGQANYKCGSTASRSAGVDLEHHHHHH
- soluble on expression in E. coli: soluble

Sequence: MSLHLSNVILHQLCKNDQDELVVKLRPASLENDASTENLVAELHRVFHSKAGKGFGSFQSDSEFQFWLQEMRKGERDFYDFSQISANRLKEELIKYPFADEGILVFAEYQSLATDYLFIGILPMNQSLKVTEGLDISATDYLDITKMDIAARIDLSSYETDKESNRYLQYIKGRVGRKVADFFLDFLQADIGLDTKQQNLVLMQAVDDFCADSKLEKQEVNEYKKQVYNYCNEQIKSGEEVQISELSGELPPSQDGTSFMDFTKEQGYELEESFPGDRSTVRKLTKYVGAGGGLNISFDSLLLGERIFYDPETDTLTIKGTLEHHHHHH
- soluble on expression in E. coli: not soluble

Sequence: MGSDKIHHHHHHMEKILLVDDEQFVLDGLKRQLRRKYAIHTADGGEKGLQLIQSDGPFAVVVSDMRMPEMNGIEFLTQVRRVAPDSIRIMLTGYADQKTAINAINEGAIFRFLTKPCSLENLTVALDAALDQYRLITAEKELLEKTLKGSIKVLVDILSLSAPAAFSQATRLRKYAAQIVARLEFPDSWQYEIAALLSSIGFVNIPPETITKHLIGEKLTGREQEMIDAVPETAGMLLANIPRLSAVALMINRQNTPCSEPTAFKNGDFHEAVRIGANLLKVLTDFDILLIRNYEPEEAIRIMSERIGLYDRTLLNMLAILDLPRRDQGVRNIRIDDLREGMIIDADIRNTHGILVVPKGYEVNESTCQRLKNFLIRQTGAETVRVLMPVYAEEESQ
- soluble on expression in E. coli: not soluble

Sequence: MKKYNIPVEATLEVIGGKWKVVILCHLTKGTKRTSELKRSMPGITQKMLTQQLRELEDDGVIQRKVYNQVPPKVEYSLTDYGWSLESILDSLCSWGECHLEKEGNTSMLIAEGE
- soluble on expression in E. coli: not soluble

Sequence: MGSDKIHHHHHHMINQLMRSVDNLPAFPVTVIKVMDLLSRDDYSIAEVARVISFDQSITANILKVSNSAYFSFGRPIRTVLEAVARLGKENVIRAVQTAGISKFYKTTARGYVSVAADLWEHSVAVALMSQILSRRIYGREDSVLYSAALLHDVGKIIIGAYVYESLEKIQRVVDGRKCSFIEAEEEVIGINHAELGGKITGYWNLPEEICDAIAFHHRPDILDKNSVDMQWIVYLADQLCMMTGIGNGIDGLAYLGISEVLKKFNLREKDLETNMMNLMDDLRNARSILDMV
- soluble on expression in E. coli: not soluble

Sequence: MSLTIDHSVTNTEQLEQQNPAIKTKLKLKKLKDQVIVITGASSGIGLVTARMAAEKGAKVVAAARNEEALKELTDELKEKGHDAIWVKADVGKEEDVNRIAETAISTFGRFDTWVNNAAVSTFGHAMDVTVEDMKRMFDTNFWGPVYGTRAAVKHYTGRGVPGALINVGSLFGDRGTVIQSTYASAKFALHGWTESIRMELEKEQAPVSVTLIHPGRIDTPYNEHAHSYLDKQPAHYRSMIYPPEAVAEAILFAAEHPKRDMYIGSQAKAIAMLGALFPRLTDRLMEKIMYHSQHAERPSNPREGHHHHHH
- soluble on expression in E. coli: soluble

Sequence: MSLKVLICDDDKIVRDDIANIAKESGYVDYVKKVKDGIEAIEFIKNEKIDLLIIDIDMPYKNGIDSAEEILSIDKDIHIVFVTGFADYSLESFKVHPIDFVVKPFKKEKILDSINIAIDHINSHKIANNNFIEDTLFVYKIRKQIHMINFDDIVMFEKNSRAINLHTKDEDIIKFYENFDDLKKRLPPNFFMTHRQYIVNLRFIHKVIPINKSSLEIRFINFQENAILNKSLEKDFLYRFYREGHHHHHH
- soluble on expression in E. coli: not soluble

Sequence: MQMNSEKFFKLFRVGETVLVEYSGTSRAELLLYYIVNNSKLPIVVDDILDTYYEFYTRLKVAGFDVAPLENVQVIKMGGTKDIGRVIGRLNISKYVISEQEYMEIVSQLKDYPVINPVLGLHKLILLGNTFENINVVKMVSNYVGREERIAFYFVNRNVIEKHSSPILDLLEEVVTSILEITDSGIIIKKSIKDEIAGKIVSPLLNF
- soluble on expression in E. coli: soluble

Sequence: RADEQAFLVALYKYMKERKTPIERIPYLGFKQINLWTMFQAAQKLGGYETITARRQWKHIYDELGGNPGSTSAATCTRRHYERLILPYERFIKGEEDKPLPPIKPRK
- soluble on expression in E. coli: soluble

Sequence: MKIIARNKKALFDYSIIERFEAGIVLKGSEVVALRAGRANLKDSFVRIIKNEIFLLNSHISLLHTTHSFYKHEERGARKLLMHRKQIDKLLGKVSIEGYTIVALDLYFNTKNKVKATLALAKGKNLHDKRETLKKKQADLEARAAMKNYK
- soluble on expression in E. coli: not soluble

Sequence: MSLRYTNSHLEDWIENLYKKIDITEPEQINFERIAEALDIRLSFKPVTSFALKHSGIYNICLDSRKSRTEQWYDFAHEFCHIYRHEGDKKTMPATWTDYLDWQSNYFTYHFCIPTCMLRNINLPYIQSHAIENVAWLFKVSPSFAKKRLSIYYRKLTQHLFSQTVTGNLCPPFLEGHHHHHH
- soluble on expression in E. coli: not soluble
